# From patent publication US20240067716A1, “IONIC LIQUID FORMULATIONS FOR TREATING INFLAMMATORY AND AUTOIMMUNE DISEASES” (i2O Therapeutics, Inc., priority 2021, published 2024)
# Test: Local delivery of infliximab to small intestinal tissue after intrajejunal or intravenous dosing, LC-MS/MS
# Format: in vivo, Wistar rats
# Settings: rat, 5 h
# Description: Adult non-diabetic male Wistar rats were fasted overnight but given free access to water and subsequently dosed via intrajejunal injection (IJ) with infliximab and one of various choline-based ionic liquids, dosed via IJ with infliximab and saline, or dosed via intravenous injection (IV) with infliximab and saline.
substance,measurement,setting,value
infliximab,% of the injected infliximab dose in the local small intestinal tissue,intrajejunal injection (IJ),0.06%
same,% of the injected antibody dose in the small intestinal tissue,"intravenous injection (IV), in saline",0.95%
